Experiments:
Format in all cases: binding, Arabidopsis thaliana
[1] = tested on: ANJ ectodomain (MBP-tagged); settings: MBP-tagged ectodomain purified from Escherichia coli; biotinylated peptide
[2] = tested on: FER ectodomain (MBP-tagged); settings: MBP-tagged ectodomain purified from Escherichia coli; biotinylated peptide
[3] = tested on: FER ectodomain (6×His-tagged); settings: 6×His-tagged ectodomain purified from insect cells; biotinylated peptide
[4] = tested on: HERK1 ectodomain (6×His-tagged); settings: 6×His-tagged ectodomain purified from insect cells; biotinylated peptide
[5] = tested on: HERK1 ectodomain (MBP-tagged); settings: MBP-tagged ectodomain purified from Escherichia coli; biotinylated peptide
[6] = tested on: ANJ ectodomain (6×His-tagged); settings: 6×His-tagged ectodomain purified from insect cells; biotinylated peptide

B1: RALF16: RALF (rapid alkalinization factor) peptide, pollen tube–specific, Arabidopsis (peptide)
peptide: RTLGYGSIKGDRIPACGYKNPNSCVKQPVNHYHRGCEKITRCARDAARYTESFNVDDDESPIINLH
modifications: also: biotin, position not given here
bind: binding to ANJ ectodomain (pull-down) [1] | binding to FER ectodomain (pull-down) [2] | binding to FER ectodomain (pull-down) [3] | binding to HERK1 ectodomain (pull-down) [4] | binding to HERK1 ectodomain (pull-down) [5] | binding to ANJ ectodomain (pull-down) [6]
